# Reference: article PMC4838890, “Dynamic and flexible H3K9me3 bridging via HP1β dimerization establishes a plastic state of condensed chromatin” (Nature Communications, 2016)
# Key:
# H3K9me3 peptide [1] = biological target: T1, H3K9me3 peptide (Homo sapiens, UniProt P68431); assay: ITC, H3K9me3 peptide; type: binding; settings: for Kd / N (stoichiometry of interaction): ITC; for Kd: 10 mM triethanolamine pH 7.5, 0.1 mM EDTA, 25°C, read-out: Kd (apparent dissociation constant); for N (stoichiometry of interaction): pH 7.5, 25°C
# T1 construct: C-terminally biotinylated histone H3 peptides (aa 1–20)
# Description: ITC measurements were performed on a iTC200 calorimeter (Microcal, Malvern, UK) at 25°C in binding buffer (10 mM triethanolamine (pH 7.5), 20 or 150 mM NaCl, 0.1 mM EDTA). Reaction heats were recorded by sequences of 37 injections of 1.8 mM hHP1β, spaced at 120 s intervals, into 250 μl of 60 μM H3 peptides, nucleosomes or oligonucleosomal arrays under constant stirring at 1,000 r.p.m. (injection #1–10: 0.5 μl each; injection #11–32: 1 μl each; injection #33–37: 2 μl each). Heats of dilution, obtained by the titration of hHP1β into buffer, were substracted from raw data before analysis. Raw data were integrated, normalized and the apparent heat change (Δq) of the reaction was plotted against the molecular ratio using the Origin software. For the determination of apparent enthalpy changes (ΔHapp), the molar association constant (KA), and the stoichiometry (n) of the interaction, non-linear least-square fitting of the Δq values was performed by the Origin software using a binding model of one set of identical binding sites.
# Figure S4 Hiragami-Hamada et al. […]
# Supplementary Figure 4: Quantitative analysis of interaction of hHP1β with H3K9me3-peptides and
# (a) ITC measurements of H3K9me3-peptide/hHP1β WT interaction at 20 mM NaCl (left) and 150 mM
# NaCl (right). Upper panels, raw data of heat release upon stepwise injection of recombinant protein into
# solution of peptide; lower panels, plots of integrated heats of protein injections vs. molar ratio of hHP1β
# WT per peptide calculated by MicroCal software. Injections #1-10: 0.5 µl; injections #11-32: 1 µ l; […]
# H3K9me3 peptide [2] = biological target: T1, H3K9me3 peptide; assay: SPR, immobilized H3K9me3 peptide; type: binding; settings: for association kinetics: H3K9me3 surfaces of different density; for dissociation (release from matrix): more pronounced at higher H3K9me3 surface densities
# Description: SPR measurements were performed on a Biacore 2000 instrument (GE Healthcare, Buckinghamshire, UK) at 298 K in 10 mM triethanolamine (pH 7.5), 150 mM NaCl, 0.1 mM EDTA, 1 mM DTT, 0.005% (v/v) Tween-20. Biotinylated ligands were immobilized on streptavidin-coated sensor chips SA (GE Healthcare, Buckinghamshire, UK). Before immobilization, sensor chips were conditioned as described by the manufacturer. To obtain low surface densities (5–24 RU), 5 nM biotinylated H3 peptide was injected at a low rate of 10 μl min^−1 using varying contact times. High surface densities (>700 RU) were prepared by injecting […] peptide (10 μl min^−1) until the SA surface was saturated. Peptide-containing chips were regenerated by applying three short pulses of 0.05% (w/v) SDS followed by an injection of 1.5 M NaCl for baseline stabilization. For binding assays, hHP1β proteins were injected at […] (serial twofold dilutions) for 2 min (30 μl/min). Dissociation was recorded for up to 5 min. A streptavidin surface without ligands served as reference. In addition, blank runs were performed for double referencing. Data evaluation was performed by steady-state analysis assuming a Langmuir 1:1 binding model using BIAevaluation 4.1 and Prism 5.04 (GraphPad, CA, USA) software. Binding to the unmodified peptides was analysed with maximum binding (RUmax) set to the corresponding values obtained with the modified peptides.
# Figure S8 Hiragami-Hamada et al.
# 20 30 one site-specific 20 30 one site-specific […]
# time [s] concentration [ μM] time [s] concentration [ μM]
# 40 two site-specific 40 one site-specific […]
# time [s] concentration [ μM]
# Supplementary Figure 8: hHP1β binds nucleosomes as dimer.
# (a) Dynamic light scattering (DLS) analysis of recombinant hHP1β WT (blue) and I161A (red).
# (b) SPR response traces of injection of hHP1β WT into Biacore cells containing biotinylated H3K9me3-peptide immobilized on a sensory chip via covalently coated streptavidin. Immobilized peptide was at 24
# RU. Injection series are from 0.024 to 50 µM protein concentration.
# (c) Blot of signal over concentration of the titration in (b) to deduce an apparent Kd value. Best fitting was achieved by one site-specific binding model.
# (d ) Same analysis as in (b) but with hHP1β I161A.
# (e) Blot of signal over concentration of the titration in (d) to deduce an apparent Kd value. […]
# (also on this page, place not known: dimer . hHP1 β H3K9me3 - se nsory ( b) site -specific ( b) hHP1 β ( d) site -specific hHP1 β modifi ed H3K9me3 -mononucleosomes H3 -tails -30 -50 -8 -4 200 -10 110 -50 -10 -30 [μM] [μM] -10 190 150 -10 110 200 -10 110 μl/min μl/min μl/min -50 150 response [RU] response [RU] response [RU] response [RU] response [RU] [μM] 10 50 response [RU]40 0 0 [μM] 10 30 50 response [RU] 40 0 0 40 [μM] 10 30 50 response [RU] 140 40 0 120 0 40 response [RU] response [RU] response [RU] Kd Kd μM Kd μM 0.8 0.6 0.4 0.2 0 1 1.0 0.8 0.6 0.4 0.2 0.0 mass fraction)
# H3K9me3 oligonucleosomes = assay: Chromatin coprecipitation, H3K9me3 oligonucleosomes; type: binding, Xenopus laevis
# Description: 6.7 nM oligonucleosomes were incubated with 1 μM recombinant protein in 100 μl binding buffer (10 mM triethanolamine (pH 7.5), 150 mM NaCl, 5 mM MgCl2, 0.1 mM EDTA, 0.1% (v/v) Triton-X100) for 1 h on ice. Precipitated chromatin complexes were recovered by centrifugation at 16,100g for 30 min at 4°C. Pellets were washed once with 0.5 ml binding buffer and centrifuged for 15 min at 4 °C. Precipitated material was resuspended in 10 μl 1 × SDS loading buffer and boiled for 5 min before running on SDS–PAGE.
# Supplementary Table 1: Summary of conditions used in the different experiments of this study.
# experiment result modification template Temp. [NaCl] [MgCl2]
# chromatin Fig. 1e,f; Fig. S1f-h; H3K9me3 oligo- 4 150 5
# [3] = SPR titration 0.024 to 50 µM, peptide at 24 RU, one site-specific binding model, read-out: apparent Kd (Supplementary Fig. 8c,e)
# [4] = SPR, 150 mM NaCl, pH 7.5, 298 K, steady-state, WT value based on fitting to a one site-specific binding model, read-out: Kd (apparent dissociation constant)
Substance,Kd (H3K9me3 peptide [1]; 20 mM NaCl) [nM],N (stoichiometry of interaction) (H3K9me3 peptide [1]; 20 mM NaCl),Kd (H3K9me3 peptide [1]; 150 mM NaCl) [nM],N (stoichiometry of interaction) (H3K9me3 peptide [1]; 150 mM NaCl),stronger binding to the H3K9me3 matrix compared with the I161A protein (H3K9me3 peptide [2]; SPR titration) [fold],Kd (H3K9me3 peptide [2]; [3]) [µM],Kd (H3K9me3 peptide [2]; [4]) [µM],"binding mode (H3K9me3 peptide [2]; SPR, H3K9me3 peptide and mononucleosome surfaces)",association kinetics (H3K9me3 peptide [2]; SPR),dissociation (release from matrix) (H3K9me3 peptide [2]; SPR),"specificity for H3K9me3 (H3K9me3 oligonucleosomes; chromatin coprecipitation, 5 mM MgCl2)",dependence of recovery on DNA sequence (H3K9me3 oligonucleosomes; chromatin on linearized pUC18 or 12 x 5S rDNA),binding to H3K9me3 peptide relative to WT (H3K9me3 peptide [1]; Table 1),"recovery with H3K9me3 oligonucleosomes (H3K9me3 oligonucleosomes; 6.7 nM oligonucleosomes, 1 μM protein, 150 mM NaCl, 5 mM MgCl2, 1 h on ice)","competition with hHP1β WT for interaction with H3K9me3 oligonucleosomes (H3K9me3 oligonucleosomes; competitive coprecipitation, Supplementary Fig. 2b)"
"hHP1β WT: recombinant human heterochromatin protein 1β (GenBank NM_001127228), 185 aa",1400 ± 600,0.9±0.0,3300 ± 200,1.0±0.0,10,0.73,0.7 ± 0.1,fully consistent with a bivalent interaction mode,very fast association kinetics,released more slowly,coprecipitated only with H3K9me1/2/3 but not H3K9me0 oligonucleosomes,independent of the DNA sequence used for chromatin reconstitution,–,–,–
hHP1β I161A: CSD point mutant of hHP1β incapable of dimerization,1100 ± 500,1.0±0.1,3400 ± 200,0.9±0.0,–,7.5,7 ± 0.4,–,very fast association kinetics,dissociated rapidly from the H3K9me3 ligand,–,–,bound an H3K9me3-peptide as efficiently as hHP1β wild type,"neither the monomeric CD alone nor an I161A mutant protein, which is incapable of dimerization[8], were significantly recovered with H3K9me3 oligonucleosomes",ineffective in competing with hHP1β WT
